Assay results from patent publication US20030077706A1.

Target: CRF2-4/zcytor11 heterodimeric receptor (on BaF3/CRF2-4/zcytor11 cells) (human) (UniProt Q08334)
Assay: cell-based or functional assay

CRF2-4/zcytor11 heterodimeric receptor (on BaF3/CRF2-4/zcytor11 cells) (human), sequence (Q08334 20-325 limits assumed, chain 1 of 2): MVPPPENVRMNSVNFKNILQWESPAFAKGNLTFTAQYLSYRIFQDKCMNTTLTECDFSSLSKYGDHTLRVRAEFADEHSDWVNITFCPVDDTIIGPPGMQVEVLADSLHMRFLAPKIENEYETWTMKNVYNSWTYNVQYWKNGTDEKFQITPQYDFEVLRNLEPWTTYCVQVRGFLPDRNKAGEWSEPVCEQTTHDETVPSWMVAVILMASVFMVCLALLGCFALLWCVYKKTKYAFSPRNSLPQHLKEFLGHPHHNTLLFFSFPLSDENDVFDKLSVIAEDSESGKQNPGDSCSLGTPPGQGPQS
CRF2-4/zcytor11 heterodimeric receptor (on BaF3/CRF2-4/zcytor11 cells) (human), sequence (chain, as listed by the source limits assumed, chain 2 of 2): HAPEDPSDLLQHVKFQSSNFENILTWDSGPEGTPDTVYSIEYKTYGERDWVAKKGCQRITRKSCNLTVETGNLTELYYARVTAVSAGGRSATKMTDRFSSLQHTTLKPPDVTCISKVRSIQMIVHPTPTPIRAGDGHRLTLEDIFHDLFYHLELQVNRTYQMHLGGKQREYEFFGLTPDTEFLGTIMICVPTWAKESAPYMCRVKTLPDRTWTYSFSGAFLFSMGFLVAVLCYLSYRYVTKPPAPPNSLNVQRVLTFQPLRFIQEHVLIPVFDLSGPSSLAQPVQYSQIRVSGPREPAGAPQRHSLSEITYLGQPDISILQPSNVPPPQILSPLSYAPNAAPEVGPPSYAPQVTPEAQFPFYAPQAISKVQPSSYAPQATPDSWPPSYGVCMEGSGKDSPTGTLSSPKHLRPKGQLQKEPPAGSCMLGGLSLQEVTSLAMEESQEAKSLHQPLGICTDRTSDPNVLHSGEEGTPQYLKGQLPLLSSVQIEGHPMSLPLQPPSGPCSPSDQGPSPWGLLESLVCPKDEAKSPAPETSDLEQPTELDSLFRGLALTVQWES

proliferation of BaF3/CRF2-4/zcytor11 cells (Alamar Blue), IL-TIF-CEE at 0.06 ng/ml (fold induction): 2
proliferation of BaF3/CRF2-4/zcytor11 cells (Alamar Blue), IL-TIF-CEE at 50 ng/ml (fold over background): 15
Substance: purified human IL-TIF-CEE (IL-TIF with C-terminal Glu-Glu tag) (from UniProt Q9GZX6 34-179) (ligand)
